# Test system: small intestinal immune cells
# Assay: Droplet-based scRNA-seq of small intestinal immune cells (LP and PP), OVA vs PBS, clustering and differential expression
# Format: in vivo, mouse
# Conditions: cluster ID 4, PP
# From the text: To comprehensively characterize small intestinal immune cells, Applicants generated scRNA-Seq profiles for 58,067 immune cells collected from lamina propria (LP) and Peyer's patch (PP) regions at steady state and after induction of a type 2 inflammatory reaction to ovalbumin (OVA) (Brandt et al., 2003) (FIGS. 1A and 8A). To ensure sufficient representation of rare cells, Applicants combined a normalization strategy—removing by flow sorting either a portion of IgD+ naïve B cells, which are the most abundant cell type in PPs, or all CD19+ and CD3+ T cells (FIG. 8B, Methods)—with profiling of a sufficiently large number of cells number (P>0.99 to recover at least 15 cells from each cluster, Methods) by massively parallel scRNA-seq (Haber et al., 2017) (Methods). Applicants obtained 36,797 and 21,270 high quality cells passing initial filtering (Methods) from PP and LP regions, respectively.
# Overall, Applicants annotated 27 cell subsets across the two compartments, spanning T cells, B cells, ILCs, dendritic cells (DCs), myeloid cells and stromal cells, in frequencies ranging from 0.07% to 14%. Briefly, Applicants first partitioned the cells from the PP regions by unsupervised clustering (Methods) into 46 clusters, retained the 97% of cells that were robustly assigned cell identities in each cluster (Methods), assigned the cells from the LP regions to the 46 clusters using a classifier (Methods), and visualized the data with scvis (Ding et al., 2018), a deep generative model-based method (FIGS. 1B and 8C, Methods). Next, Applicants identified genes that were differentially expressed between the cells in each cluster and the remaining cells (Table 1, Methods), as well as between pairs of clusters (Table 2), to elucidate identities of similar cell types/states. Applicants excluded from downstream analysis clusters mostly consisting of contaminants from epithelium, likely doublets, or cells with a small number of Unique Molecular Identifiers (UMIs) (FIGS. 1C and 8D), or lacking distinct markers (Methods). Altogether, Applicants retained 27 clusters spanning 85% of the cells and each associated with distinct marker genes (FIG. 8E, Methods).
# To induce allergic reaction to OVA, 6 to 7 weeks old mice were sensitized twice, two weeks apart, with 50 μg of OVA plus 1 mg of aluminum potassium sulfate adjuvant via intraperitoneal injection. Two weeks later, mice were orally administered with 50 mg of OVA on every other day for a total of five times. 1 μg of α-CGRP peptide was administered simultaneously when indicated. Mice were deprived of food for 3-4 hours in cages with wood chip bedding for limiting antigen degradation in the stomach before each intragastric challenge.
# Isolation of cells from Peyer's patches (PPs). Peyer's patches (PPs) were carefully dissected from the small intestine under a stereo microscope using a fine scissor, pierced once with a fine forcep. Tissues were digested in freshly made digestion buffer (RPMI-1640 containing 100 μg/ml Liberase™ and 50 μg/ml DNase I at 37° C. on a roto-mixer. After 15 min, tissues were very gently mixed using a 1 ml pipette. The supernatant was collected and added to ice-cold MACS buffer (pH 7.4; PBS plus 2% FCS and 2 mM EDTA). Pre-warmed (37° C.) fresh digestion buffer was added to the remaining tissues. After rotation at 37° C. for 15 min, the mixture was vigorously mixed using a 1 ml pipette for 1 min. Supernatants from the two steps were combined and passed through 70 μm filters and stained for FACS (below).
# Isolation of cells from the lamina propria (LP). The small intestines were opened longitudinally and washed in ice-cold PBS. For scRNA-seq, roughly 0.5 cm of fragments from each of the distal, middle and proximal regions without visible PPs were collected. Epithelial cells were dissociated by tissue rotation in pre-warmed (37° C.) PBS containing 10 mM EDTA at 37° C. for 15 min, followed by additional incubation on ice for 15 min. Tissues were then shaken vigorously. […]
molecule,measurement,setting,value
"OVA (protein, UniProt P01012 2-386, looked up) Ovalbumin: GSIGAASMEFCFDVFKELKVHHANENIFYCPIAIMSALAMVYLGAKDSTRTQINKVVRFDKLPGFGDSIEAQCGTSVNVHSSLRDILNQITKPNDVYSFSLASRLYAEERYPILPEYLQCVKELYRGGLEPINFQTAADQARELINSWVESQTNGIIRNVLQPSSVDSQTAMVLVNAIVFKGLWEKAFKDEDTQAMPFRVTEQESKPVQMMYQIGLFRVASMASEKMKILELPFASGTMSMLVLLPDEVSGLEQLESIINFEKLTEWTSSNVMEERKIKVYLPRMKMEEKYNLTSVLMAMGITDVFSSSANLSGISSAESLKISQAVHAAHAEINEAGREVVGSAEAGVDAASVSEEFRADHPFLFCIKHIATNAVLFFGRCVSP",H2-T23: percentage of expressing cells in OVA-treated group,,0.264
same,Herpud1: percentage of expressing cells in OVA-treated group,,0.33
same,Icos: percentage of expressing cells in OVA-treated group,,0.236
same,Il2ra: percentage of expressing cells in OVA-treated group,,0.457
same,Il18r1: percentage of expressing cells in OVA-treated group,,0.605
same,Irf2: percentage of expressing cells in OVA-treated group,,0.306
same,Irs2: percentage of expressing cells in OVA-treated group,,0.149
same,Itgav: percentage of expressing cells in OVA-treated group,,0.175
same,Klf13: percentage of expressing cells in OVA-treated group,,0.417
same,Klrk1: percentage of expressing cells in OVA-treated group,,0.133
same,Leng9: percentage of expressing cells in OVA-treated group,,0.128
same,Map3k14: percentage of expressing cells in OVA-treated group,,0.133
same,Mast4: percentage of expressing cells in OVA-treated group,,0.467
same,Mbnl2: percentage of expressing cells in OVA-treated group,,0.162
same,Minos1: percentage of expressing cells in OVA-treated group,,0.768
same,Morf4l2: percentage of expressing cells in OVA-treated group,,0.317
same,Neat1: percentage of expressing cells in OVA-treated group,,0.502
same,Nedd8: percentage of expressing cells in OVA-treated group,,0.781
same,Plekhg1: percentage of expressing cells in OVA-treated group,,0.231
same,Ppp1r16b: percentage of expressing cells in OVA-treated group,,0.302
same,Ppp2ca: percentage of expressing cells in OVA-treated group,,0.336
same,Ptger2: percentage of expressing cells in OVA-treated group,,0.299
same,Ptpn7: percentage of expressing cells in OVA-treated group,,0.337
same,Raf1: percentage of expressing cells in OVA-treated group,,0.232
same,Ramp3: percentage of expressing cells in OVA-treated group,,0.224
same,Rassf5: percentage of expressing cells in OVA-treated group,,0.31
same,Rcn2: percentage of expressing cells in OVA-treated group,,0.258
same,Rel: percentage of expressing cells in OVA-treated group,,0.19
same,Rgs1: percentage of expressing cells in OVA-treated group,,0.498
same,Rgs3: percentage of expressing cells in OVA-treated group,,0.282
same,Rnf19b: percentage of expressing cells in OVA-treated group,,0.427
same,Rpa3: percentage of expressing cells in OVA-treated group,,0.175
same,S100a6: percentage of expressing cells in OVA-treated group,,0.603
same,S100a10: percentage of expressing cells in OVA-treated group,,0.866
same,Saraf: percentage of expressing cells in OVA-treated group,,0.557
same,Sat1: percentage of expressing cells in OVA-treated group,,0.744
same,Scn1b: percentage of expressing cells in OVA-treated group,,0.314
same,Sec11a: percentage of expressing cells in OVA-treated group,,0.376
same,Serpina3g: percentage of expressing cells in OVA-treated group,,0.587
same,Serpinb6b: percentage of expressing cells in OVA-treated group,,0.2
same,Ssna1: percentage of expressing cells in OVA-treated group,,0.294
same,Taf7: percentage of expressing cells in OVA-treated group,,0.144
same,Taf10: percentage of expressing cells in OVA-treated group,,0.297
same,Tagap: percentage of expressing cells in OVA-treated group,,0.461
same,Tcrg-C1: percentage of expressing cells in OVA-treated group,,0.36
same,Tgoln1: percentage of expressing cells in OVA-treated group,,0.286
same,Timm13: percentage of expressing cells in OVA-treated group,,0.592
same,Tnf: percentage of expressing cells in OVA-treated group,,0.245
same,Trim8: percentage of expressing cells in OVA-treated group,,0.223
same,Trps1: percentage of expressing cells in OVA-treated group,,0.17
same,Tsc22d3: percentage of expressing cells in OVA-treated group,,0.489
same,Tspan32: percentage of expressing cells in OVA-treated group,,0.395
same,Ttc19: percentage of expressing cells in OVA-treated group,,0.152
same,Tuba4a: percentage of expressing cells in OVA-treated group,,0.156
same,Tubb4b: percentage of expressing cells in OVA-treated group,,0.347
same,Txk: percentage of expressing cells in OVA-treated group,,0.529
same,Vegfa: percentage of expressing cells in OVA-treated group,,0.131
same,VgIl4: percentage of expressing cells in OVA-treated group,,0.338
same,Zc3hav1: percentage of expressing cells in OVA-treated group,,0.145
same,Zfand5: percentage of expressing cells in OVA-treated group,,0.252
same,1600014C10Rik: LN (average fold change),OVA vs PBS,0.467
same,2010300C02Rik: LN (average fold change),OVA vs PBS,0.310
same,2310001H17Rik: LN (average fold change),OVA vs PBS,0.484
same,4921524J17Rik: LN (average fold change),OVA vs PBS,0.531
same,Alyref: LN (average fold change),OVA vs PBS,−0.564
same,Amd1: LN (average fold change),OVA vs PBS,−0.353
same,Asb2: LN (average fold change),OVA vs PBS,0.320
same,Azin1: LN (average fold change),OVA vs PBS,−0.472
same,Bin3: LN (average fold change),OVA vs PBS,0.452
same,Bzw1: LN (average fold change),OVA vs PBS,−0.190
same,Cacybp: LN (average fold change),OVA vs PBS,0.291
same,Cd69: LN (average fold change),OVA vs PBS,−0.153
same,Cdkn1a: LN (average fold change),OVA vs PBS,−0.202
same,Clec2d: LN (average fold change),OVA vs PBS,0.489
same,Cwc25: LN (average fold change),OVA vs PBS,−0.463

# Reference: patent US20220143148A1, “COMPOSITIONS AND METHODS FOR MODULATING CGRP SIGNALING TO REGULATE INTESTINAL INNATE LYMPHOID CELLS” (The Broad Institute, Inc., priority 2019, published 2022)
